# No end group written: not given here.
# Molecular target: T1, human CRH receptor type 2 (human, UniProt Q13324 1-411)
# T1 sequence (looked up): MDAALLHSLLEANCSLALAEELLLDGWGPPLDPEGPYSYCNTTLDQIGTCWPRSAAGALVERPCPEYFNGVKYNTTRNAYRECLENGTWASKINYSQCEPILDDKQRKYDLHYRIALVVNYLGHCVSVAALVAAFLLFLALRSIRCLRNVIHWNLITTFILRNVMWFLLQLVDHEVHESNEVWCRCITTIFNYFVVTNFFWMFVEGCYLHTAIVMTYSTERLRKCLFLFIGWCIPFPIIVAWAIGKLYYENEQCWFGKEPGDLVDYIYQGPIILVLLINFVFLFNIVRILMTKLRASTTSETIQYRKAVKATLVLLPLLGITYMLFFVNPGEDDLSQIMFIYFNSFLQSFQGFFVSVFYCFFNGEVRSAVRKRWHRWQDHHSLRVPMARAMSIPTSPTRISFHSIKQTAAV
# Experiment: cell-based or functional assay
Binder,"Log DR against h-SCP, cAMP [log10 ratio]","pA50, cAMP"
"TKFTLSLDVPTNIMNLLFNIAKAKNLRAQCAANAHLMAQI-NH2 [Cys-variant CRHR2 peptide agonist, SEQ ID NO: 31]",1.61,8.02 -log M
"TKFTLSLDVPTNIMNLLFNIAKAKNLCAQAAANAHLMAQI-NH2 [Cys-variant CRHR2 peptide agonist, SEQ ID NO: 28]",0.16,9.36 -log M
"TKFTLSLDVPTNIMNLLFNIAKAKNLRAQAAACAHLMAQI-NH2 [Cys-variant CRHR2 peptide agonist, SEQ ID NO: 34]",> 3.19,~6.32 -log M
"TKFTLSLDVPTNIMNCLFNIAKAKNLRAQAAANAHLMAQI-NH2 [Cys-variant CRHR2 peptide agonist, SEQ ID NO: 17]",0.02,9.5 -log M
"TKFTLSLDVPTNIMNLLFNIAKAKNLRAQACANAHLMAQI-NH2 [Cys-variant CRHR2 peptide agonist, SEQ ID NO: 32]",0.11,9.41 -log M
"TKFTLSLDVPTNIMNLLFNIAKAKNCRAQAAANAHLMAQI-NH2 [Cys-variant CRHR2 peptide agonist, SEQ ID NO: 27]",0.76,8.76 -log M
"TKFTLSLDVPTCIMNLLFNIAKAKNLRAQAAANAHLMAQI-NH2 [Cys-variant CRHR2 peptide agonist, SEQ ID NO: 13]",-0.01,9.59 -log M
"TKFTLSLDVPTNIMNLLFNIAKAKNLRCQAAANAHLMAQI-NH2 [Cys-variant CRHR2 peptide agonist, SEQ ID NO: 29]",0,9.47 -log M
"TKFTLSLDVPTNIMNLCFNIAKAKNLRAQAAANAHLMAQI-NH2 [Cys-variant CRHR2 peptide agonist, SEQ ID NO: 18]",1.11,8.41 -log M
"TKFTLSLDVPTNIMNLLFNICKAKNLRAQAAANAHLMAQI-NH2 [Cys-variant CRHR2 peptide agonist, SEQ ID NO: 22]",0.52,9.17 -log M
"TKFTLSLDVPTNIMNLLFNIAKAKNLRAQAAANCHLMAQI-NH2 [Cys-variant CRHR2 peptide agonist, SEQ ID NO: 35]",0.7,8.93 -log M
"TKFTLSLDVPTNCMNLLFNIAKAKNLRAQAAANAHLMAQI-NH2 [Cys-variant CRHR2 peptide agonist, SEQ ID NO: 14]",> 2,~7.34 -log M
"TKFTLSLDVPTNICNLLFNIAKAKNLRAQAAANAHLMAQI-NH2 [Cys-variant CRHR2 peptide agonist, SEQ ID NO: 15]",0.9,8.68 -log M
"TKFTLSLDVPTNIMCLLFNIAKAKNLRAQAAANAHLMAQI-NH2 [Cys-variant CRHR2 peptide agonist, SEQ ID NO: 16]",0.76,8.93 -log M
"TKFTLSLDVPTNIMNLLFNIAKAKNLRAQAACNAHLMAQI-NH2 [Cys-variant CRHR2 peptide agonist, SEQ ID NO: 33]",0.45,9.07 -log M
"TKFTLSLDVPTNIMNLLFNIAKACNLRAQAAANAHLMAQI-NH2 [Cys-variant CRHR2 peptide agonist, SEQ ID NO: 25]",0.35,9.17 -log M
"TKFTLSLDVPTCIMNLLFNIAKAKNLRAQAAANAHLMAQI (NES-PEG (about 20 kDa) on Cys 12; C-terminal amide) [Pegylated Cys-variant CRHR2 peptide agonist (NES linker, PEG about 20 kDa), SEQ ID NO: 66]",1.26,8.31 -log M
"TKFTLSLDVPTNIMNLLFCIAKAKNLRAQAAANAHLMAQI (NES-PEG (about 20 kDa) on Cys 19; C-terminal amide) [Pegylated Cys-variant CRHR2 peptide agonist (NES linker, PEG about 20 kDa), SEQ ID NO: 73]",1.11,8.29 -log M
"TKFTLSLDVPTNCMNLLFNIAKAKNLRAQAAANAHLMAQI (NES-PEG (about 20 kDa) on Cys 13; C-terminal amide) [Pegylated Cys-variant CRHR2 peptide agonist (NES linker, PEG about 20 kDa), SEQ ID NO: 67]",> 3,~6.35 -log M
"TKFTLSLDVPTNIMNLLFNIAKAKCLRAQAAANAHLMAQI (NES-PEG (about 20 kDa) on Cys 25; C-terminal amide) [Pegylated Cys-variant CRHR2 peptide agonist (NES linker, PEG about 20 kDa), SEQ ID NO: 79]",1.11,8.5 -log M
"TKFTLSLDVPTNIMNLLFNCAKAKNLRAQAAANAHLMAQI (NES-PEG (about 20 kDa) on Cys 20; C-terminal amide) [Pegylated Cys-variant CRHR2 peptide agonist (NES linker, PEG about 20 kDa), SEQ ID NO: 74]",~2.28,~7.33 -log M
"TKFTLSLDVPTNIMNLLFNICKAKNLRAQAAANAHLMAQI (NES-PEG (about 20 kDa) on Cys 21; C-terminal amide) [Pegylated Cys-variant CRHR2 peptide agonist (NES linker, PEG about 20 kDa), SEQ ID NO: 75]",1.3,8.24 -log M
"TKFTLSLDVPTNIMNLLFNIACAKNLRAQAAANAHLMAQI (NES-PEG (about 20 kDa) on Cys 22; C-terminal amide) [Pegylated Cys-variant CRHR2 peptide agonist (NES linker, PEG about 20 kDa), SEQ ID NO: 76]",2.7,6.84 -log M

Binder,"Log DR against h-SCP, cAMP [log10 ratio]","pA50, cAMP"
"TKFTLSLDVPTNIMNLCFNIAKAKNLRAQAAANAHLMAQI (NES-PEG (about 20 kDa) on Cys 17; C-terminal amide) [Pegylated Cys-variant CRHR2 peptide agonist (NES linker, PEG about 20 kDa), SEQ ID NO: 71]",~2.26,~7.35 -log M
"TKFTLSLDVPTNIMNLLFNIAKACNLRAQAAANAHLMAQI (NES-PEG (about 20 kDa) on Cys 24; C-terminal amide) [Pegylated Cys-variant CRHR2 peptide agonist (NES linker, PEG about 20 kDa), SEQ ID NO: 78]",~1.52,~7.89 -log M
"TKFTLSLDVPTNIMNLLFNIAKAKNLCAQAAANAHLMAQI (NES-PEG (about 20 kDa) on Cys 27; C-terminal amide) [Pegylated Cys-variant CRHR2 peptide agonist (NES linker, PEG about 20 kDa), SEQ ID NO: 81]",1.82,7.83 -log M
"TKFTLSLDVPTNIMNLLFNIAKAKNCRAQAAANAHLMAQI (NES-PEG (about 20 kDa) on Cys 26; C-terminal amide) [Pegylated Cys-variant CRHR2 peptide agonist (NES linker, PEG about 20 kDa), SEQ ID NO: 80]",1.75,7.6 -log M
"TKFTLSLDVPTNIMNLLFNIAKAKNLRAQAACNAHLMAQI (NES-PEG (about 20 kDa) on Cys 32; C-terminal amide) [Pegylated Cys-variant CRHR2 peptide agonist (NES linker, PEG about 20 kDa), SEQ ID NO: 86]",0.82,8.79 -log M
"TKFTLSLDVPTNIMCLLFNIAKAKNLRAQAAANAHLMAQI (NES-PEG (about 20 kDa) on Cys 15; C-terminal amide) [Pegylated Cys-variant CRHR2 peptide agonist (NES linker, PEG about 20 kDa), SEQ ID NO: 69]",2.09,7.45 -log M
"TKFTLSLDVPTNIMNLLFNIAKCKNLRAQAAANAHLMAQI (NES-PEG (about 20 kDa) on Cys 23; C-terminal amide) [Pegylated Cys-variant CRHR2 peptide agonist (NES linker, PEG about 20 kDa), SEQ ID NO: 77]",1.27,8.27 -log M
"TKFTLSLDVPTNIMNLLFNIAKAKNLRAQCAANAHLMAQI (NES-PEG (about 20 kDa) on Cys 30; C-terminal amide) [Pegylated Cys-variant CRHR2 peptide agonist (NES linker, PEG about 20 kDa), SEQ ID NO: 84]",~2.84,~6.82 -log M
"TKFTLSLDVPTNIMNLLCNIAKAKNLRAQAAANAHLMAQI (NES-PEG (about 20 kDa) on Cys 18; C-terminal amide) [Pegylated Cys-variant CRHR2 peptide agonist (NES linker, PEG about 20 kDa), SEQ ID NO: 72]",1.5,8.04 -log M
"TKFTLSLDVPTNIMNLLFNIAKAKNLRAQAAACAHLMAQI (NES-PEG (about 20 kDa) on Cys 33; C-terminal amide) [Pegylated Cys-variant CRHR2 peptide agonist (NES linker, PEG about 20 kDa), SEQ ID NO: 87]",> 3.68,~6 -log M
"TKFTLSLDVPTNIMNLLFNIAKAKNLRACAAANAHLMAQI (NES-PEG (about 20 kDa) on Cys 29; C-terminal amide) [Pegylated Cys-variant CRHR2 peptide agonist (NES linker, PEG about 20 kDa), SEQ ID NO: 83]",1.63,7.91 -log M
"TKFTLSLDVPTNIMNLLFNIAKAKNLRAQACANAHLMAQI (NES-PEG (about 20 kDa) on Cys 31; C-terminal amide) [Pegylated Cys-variant CRHR2 peptide agonist (NES linker, PEG about 20 kDa), SEQ ID NO: 85]",0.89,8.51 -log M
"TKFTLSLDVPTNIMNCLFNIAKAKNLRAQAAANAHLMAQI (NES-PEG (about 20 kDa) on Cys 16; C-terminal amide) [Pegylated Cys-variant CRHR2 peptide agonist (NES linker, PEG about 20 kDa), SEQ ID NO: 70]",~2.07,~7.34 -log M
"TKFTLSLDVPTNIMNLLFNIAKAKNLRCQAAANAHLMAQI (NES-PEG (about 20 kDa; MW20000) on Cys 28; C-terminal amide) [Pegylated Cys-variant CRHR2 peptide agonist (NES linker, PEG about 20 kDa), SEQ ID NO: 82]",1.12,8.4 -log M
"TKFTLSLDVPTNICNLLFNIAKAKNLRAQAAANAHLMAQI (NES-PEG (about 20 kDa) on Cys 14; C-terminal amide) [Pegylated Cys-variant CRHR2 peptide agonist (NES linker, PEG about 20 kDa), SEQ ID NO: 68]",~2.61,~6.96 -log M
"TKFTLSLDVPTNIMNLLFNIAKAKNLRACAAANAHLMAQI-NH2 [Cys-variant CRHR2 peptide agonist, SEQ ID NO: 30]",1.28,8.4 -log M
"TKFTLSLDVPTNIMNLLFCIAKAKNLRAQAAANAHLMAQI-NH2 [Cys-variant CRHR2 peptide agonist, SEQ ID NO: 20]",0.52,9 -log M
"TKFTLSLDVPTNIMNLLFNIAKCKNLRAQAAANAHLMAQI-NH2 [Cys-variant CRHR2 peptide agonist, SEQ ID NO: 24]",0.74,8.94 -log M
"TKFTLSLDVPTNIMNLLFNIACAKNLRAQAAANAHLMAQI-NH2 [Cys-variant CRHR2 peptide agonist, SEQ ID NO: 23]",1.13,8.55 -log M
"TKFTLSLDVPTNIMNLLCNIAKAKNLRAQAAANAHLMAQI-NH2 [Cys-variant CRHR2 peptide agonist, SEQ ID NO: 19]",1.67,8.01 -log M
"TKFTLSLDVPTNIMNLLFNCAKAKNLRAQAAANAHLMAQI-NH2 [Cys-variant CRHR2 peptide agonist, SEQ ID NO: 21]",0.77,8.75 -log M
"TKFTLSLDVPTNIMNLLFNIAKAKCLRAQAAANAHLMAQI-NH2 [Cys-variant CRHR2 peptide agonist, SEQ ID NO: 26]",0.08,9.44 -log M
